This note sets out measurements from the supplement of paper PMC10065799, “High-throughput profiling of sequence recognition by tyrosine kinases and SH2 domains using bacterial peptide display” (eLife, 2023).

One data set has as its target Grb2 SH2 (UniProt P62993). The experiment in a line: SH2 binding enrichment of the phosphorylated peptide, bacterial display (enrichment ratio); higher = better substrate or ligand; peptides without Tyr show the background.
In a further data set the target is c-Src SH2. The data set is described as above.
A further data set has as its target SHP2-C SH2. Described as above.
The target in another data set is FGFR3 (UniProt P22607). The experiment in a line: phosphorylation enrichment, bacterial display (enrichment ratio); higher = better substrate or ligand; peptides without Tyr show the background.
In a further data set the target is Fyn (UniProt P06241). The data set is described as above.
In the next data set the target is MERTK (UniProt Q12866). The description is as above.
The next data set has as its target Jak2 (UniProt O60674). The data set is described as above.
Another data set concerns AncSZ. Described as above.
Another data set deals with EPHB1 (UniProt P54762). Described as above.
For the next data set, the system named is Fer (mouse). Described as above.
The target of another data set is Hck (UniProt P08631). The description is as above.
A further data set addresses EPHB2 (UniProt P29323). The description is as above.
The target of the next data set is Fes (UniProt P07332). Described as above.
A further data set has as its system c-Abl (mouse). The data set is described as above.
The next data set deals with c-Src. Described as above.
The next data set addresses FGFR1 (UniProt P11362). Described as above.
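Throughout, for SH2 binding enrichment of the phosphorylated peptide, bacterial display: peptide library displayed on the E. coli surface as eCPX fusions, selected cells deep-sequenced, score is each peptide's frequency after selection divided by its frequency in the input.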
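Throughout, for phosphorylation enrichment, bacterial display: 11-residue human phosphosite peptides and single-mutation variants displayed on the E. coli surface, counted by deep sequencing, each peptide's frequency after selection divided by its frequency in the unselected input library; frequency after pTyr selection over input frequency; kinase dosed for 20-30% of maximal phosphorylation in three min.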

Chain of Grb2 SH2 (P62993 whole entry, looked up): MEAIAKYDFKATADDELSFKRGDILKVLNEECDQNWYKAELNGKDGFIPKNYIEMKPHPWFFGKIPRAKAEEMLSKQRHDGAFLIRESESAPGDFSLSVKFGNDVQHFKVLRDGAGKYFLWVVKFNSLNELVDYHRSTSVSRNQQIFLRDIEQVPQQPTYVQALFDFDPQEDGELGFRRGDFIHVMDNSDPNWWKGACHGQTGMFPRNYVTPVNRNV
Chain of FGFR1 (P11362 whole entry, looked up, the tested form may be a part): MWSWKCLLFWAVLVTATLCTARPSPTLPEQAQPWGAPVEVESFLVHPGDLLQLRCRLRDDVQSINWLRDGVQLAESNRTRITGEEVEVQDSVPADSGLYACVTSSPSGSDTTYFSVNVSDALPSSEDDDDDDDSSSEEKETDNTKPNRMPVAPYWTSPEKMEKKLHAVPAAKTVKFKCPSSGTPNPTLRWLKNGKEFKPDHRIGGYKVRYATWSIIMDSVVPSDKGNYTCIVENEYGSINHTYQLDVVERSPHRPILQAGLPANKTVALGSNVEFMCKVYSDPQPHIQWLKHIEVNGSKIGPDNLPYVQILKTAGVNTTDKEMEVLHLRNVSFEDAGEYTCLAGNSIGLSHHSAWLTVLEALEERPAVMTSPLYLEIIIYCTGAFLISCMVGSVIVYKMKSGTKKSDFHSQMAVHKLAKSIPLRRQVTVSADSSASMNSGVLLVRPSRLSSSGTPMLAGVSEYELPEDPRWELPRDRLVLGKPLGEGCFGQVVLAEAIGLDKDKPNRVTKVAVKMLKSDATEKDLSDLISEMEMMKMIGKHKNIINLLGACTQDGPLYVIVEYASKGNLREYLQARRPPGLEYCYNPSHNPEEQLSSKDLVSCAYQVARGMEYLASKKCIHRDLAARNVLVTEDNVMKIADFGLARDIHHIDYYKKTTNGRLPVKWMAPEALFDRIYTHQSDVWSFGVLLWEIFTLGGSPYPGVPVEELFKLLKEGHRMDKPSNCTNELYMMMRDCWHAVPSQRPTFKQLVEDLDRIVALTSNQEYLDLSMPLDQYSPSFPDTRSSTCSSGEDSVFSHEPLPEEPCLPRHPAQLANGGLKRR
Chain of Fyn (P06241 whole entry, looked up): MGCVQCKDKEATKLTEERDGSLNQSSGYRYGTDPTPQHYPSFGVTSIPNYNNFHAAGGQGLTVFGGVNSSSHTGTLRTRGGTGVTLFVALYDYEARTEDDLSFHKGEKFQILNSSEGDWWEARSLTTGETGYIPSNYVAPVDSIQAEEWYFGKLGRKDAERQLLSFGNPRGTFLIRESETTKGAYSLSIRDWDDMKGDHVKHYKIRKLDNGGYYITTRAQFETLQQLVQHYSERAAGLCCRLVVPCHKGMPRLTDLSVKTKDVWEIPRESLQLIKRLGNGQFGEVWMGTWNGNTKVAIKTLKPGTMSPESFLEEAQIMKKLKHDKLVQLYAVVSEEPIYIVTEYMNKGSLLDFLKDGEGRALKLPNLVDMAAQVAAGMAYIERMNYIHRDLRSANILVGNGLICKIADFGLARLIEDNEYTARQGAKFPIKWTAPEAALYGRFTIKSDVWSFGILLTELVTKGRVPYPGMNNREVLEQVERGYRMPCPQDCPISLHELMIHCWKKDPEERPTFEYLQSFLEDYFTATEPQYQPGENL
Chain of Jak2 (O60674 whole entry, looked up): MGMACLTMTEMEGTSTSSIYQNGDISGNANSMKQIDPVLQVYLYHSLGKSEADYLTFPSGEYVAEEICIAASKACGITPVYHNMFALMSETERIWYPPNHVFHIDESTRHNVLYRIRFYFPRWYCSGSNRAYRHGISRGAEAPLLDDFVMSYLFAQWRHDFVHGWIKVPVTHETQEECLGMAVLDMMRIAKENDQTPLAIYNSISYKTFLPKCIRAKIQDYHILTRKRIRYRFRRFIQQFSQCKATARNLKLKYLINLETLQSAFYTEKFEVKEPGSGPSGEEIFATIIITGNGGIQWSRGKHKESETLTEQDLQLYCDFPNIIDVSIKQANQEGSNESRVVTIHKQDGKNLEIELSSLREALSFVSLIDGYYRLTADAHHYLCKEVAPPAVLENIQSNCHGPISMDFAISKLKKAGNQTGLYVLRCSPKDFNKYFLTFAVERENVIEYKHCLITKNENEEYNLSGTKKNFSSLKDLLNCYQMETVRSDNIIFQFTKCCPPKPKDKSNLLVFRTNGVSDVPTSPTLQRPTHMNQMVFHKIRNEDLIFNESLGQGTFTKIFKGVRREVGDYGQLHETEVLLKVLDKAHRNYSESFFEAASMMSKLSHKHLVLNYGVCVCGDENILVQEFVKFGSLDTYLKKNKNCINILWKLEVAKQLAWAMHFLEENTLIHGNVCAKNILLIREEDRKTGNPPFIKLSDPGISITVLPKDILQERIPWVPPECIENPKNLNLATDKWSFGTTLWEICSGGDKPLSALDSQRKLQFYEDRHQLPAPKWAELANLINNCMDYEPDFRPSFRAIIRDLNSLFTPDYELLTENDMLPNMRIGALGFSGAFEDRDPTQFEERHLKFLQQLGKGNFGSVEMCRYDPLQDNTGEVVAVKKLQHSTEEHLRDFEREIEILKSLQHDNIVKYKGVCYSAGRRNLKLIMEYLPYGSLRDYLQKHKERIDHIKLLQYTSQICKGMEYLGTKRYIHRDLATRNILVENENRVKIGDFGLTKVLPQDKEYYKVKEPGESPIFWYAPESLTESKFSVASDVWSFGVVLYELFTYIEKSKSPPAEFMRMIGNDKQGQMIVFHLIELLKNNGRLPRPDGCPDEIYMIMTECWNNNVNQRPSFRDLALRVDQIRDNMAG
Chain of MERTK (Q12866 whole entry, looked up): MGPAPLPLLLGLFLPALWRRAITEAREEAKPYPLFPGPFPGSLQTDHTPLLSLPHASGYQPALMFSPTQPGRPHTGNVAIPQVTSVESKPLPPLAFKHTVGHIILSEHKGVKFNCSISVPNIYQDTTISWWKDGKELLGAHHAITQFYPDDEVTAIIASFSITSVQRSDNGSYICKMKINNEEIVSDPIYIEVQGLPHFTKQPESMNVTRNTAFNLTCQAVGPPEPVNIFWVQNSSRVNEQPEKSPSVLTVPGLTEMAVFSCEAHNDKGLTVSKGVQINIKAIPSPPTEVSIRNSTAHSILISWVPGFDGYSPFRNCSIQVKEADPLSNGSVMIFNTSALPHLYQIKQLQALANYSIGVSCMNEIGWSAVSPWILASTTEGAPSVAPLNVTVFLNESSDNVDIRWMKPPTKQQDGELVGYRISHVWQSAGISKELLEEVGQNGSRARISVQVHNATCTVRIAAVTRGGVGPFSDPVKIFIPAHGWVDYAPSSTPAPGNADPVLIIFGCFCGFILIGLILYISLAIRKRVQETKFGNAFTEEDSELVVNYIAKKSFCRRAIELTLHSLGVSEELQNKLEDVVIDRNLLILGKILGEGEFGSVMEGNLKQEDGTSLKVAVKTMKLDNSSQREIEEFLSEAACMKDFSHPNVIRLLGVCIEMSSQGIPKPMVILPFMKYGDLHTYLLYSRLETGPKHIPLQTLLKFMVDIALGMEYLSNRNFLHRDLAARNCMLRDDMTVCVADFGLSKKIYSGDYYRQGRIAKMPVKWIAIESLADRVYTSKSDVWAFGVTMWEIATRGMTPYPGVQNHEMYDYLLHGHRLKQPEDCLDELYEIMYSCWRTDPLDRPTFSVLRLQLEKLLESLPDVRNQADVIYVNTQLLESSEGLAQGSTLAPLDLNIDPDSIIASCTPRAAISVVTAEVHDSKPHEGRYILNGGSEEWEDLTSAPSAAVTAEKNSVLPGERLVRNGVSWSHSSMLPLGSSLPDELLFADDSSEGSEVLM
Chain of EPHB2 (P29323 whole entry, looked up): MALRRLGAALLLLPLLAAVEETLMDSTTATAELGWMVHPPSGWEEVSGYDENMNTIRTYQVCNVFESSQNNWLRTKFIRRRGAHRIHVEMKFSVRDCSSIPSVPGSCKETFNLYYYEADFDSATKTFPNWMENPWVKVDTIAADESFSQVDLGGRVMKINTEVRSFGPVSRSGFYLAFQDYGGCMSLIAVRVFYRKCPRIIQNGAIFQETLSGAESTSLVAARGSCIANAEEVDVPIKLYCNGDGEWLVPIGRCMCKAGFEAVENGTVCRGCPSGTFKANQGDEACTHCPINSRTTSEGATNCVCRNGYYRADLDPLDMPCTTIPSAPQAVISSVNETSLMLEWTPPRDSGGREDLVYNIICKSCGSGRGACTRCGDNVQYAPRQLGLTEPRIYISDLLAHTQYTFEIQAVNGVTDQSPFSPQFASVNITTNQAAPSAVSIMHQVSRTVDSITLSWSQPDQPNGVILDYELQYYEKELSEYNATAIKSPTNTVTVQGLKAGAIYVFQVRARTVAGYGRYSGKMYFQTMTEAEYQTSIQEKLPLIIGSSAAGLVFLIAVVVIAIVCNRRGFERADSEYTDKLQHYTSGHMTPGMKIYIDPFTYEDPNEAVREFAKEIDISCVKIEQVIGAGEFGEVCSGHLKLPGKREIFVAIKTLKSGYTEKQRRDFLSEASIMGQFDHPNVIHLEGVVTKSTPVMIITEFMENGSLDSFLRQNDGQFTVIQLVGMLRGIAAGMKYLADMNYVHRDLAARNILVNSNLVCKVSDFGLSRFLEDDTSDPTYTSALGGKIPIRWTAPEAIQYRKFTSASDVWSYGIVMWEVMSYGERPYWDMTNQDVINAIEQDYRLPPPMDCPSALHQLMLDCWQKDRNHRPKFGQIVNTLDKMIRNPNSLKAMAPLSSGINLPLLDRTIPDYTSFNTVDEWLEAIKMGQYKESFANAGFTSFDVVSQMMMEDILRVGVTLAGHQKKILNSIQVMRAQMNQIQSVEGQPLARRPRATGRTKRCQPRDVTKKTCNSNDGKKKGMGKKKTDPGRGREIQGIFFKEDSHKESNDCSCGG

Turning to LRVGFYESDVM [A2M_Y708], the SH2 binding enrichment with Grb2 SH2 was found to be 0.934; with c-Src SH2, 4.14; with SHP2-C SH2 it was 1.02. For the same sequence, the phosphorylation enrichment with FGFR3 was 2.89; with Fyn it was 1.28; with MERTK it was 2.61; in the data set with Jak2, 2.04; with AncSZ, 2.97; in the data set with EPHB1, 1.86. Moreover, the phosphorylation enrichment with Fer (mouse) worked out at 1.62; in the data set with Hck it was 0.996; in the data set with EPHB2 it was 0.934; with Fes, 3.12; in the data set on c-Abl (mouse), 1.9; with c-Src, 1.33. In the data set with FGFR1, the phosphorylation enrichment turned out to be 1.39.
As to LRYDSYWSYCN [SLC20A2_Y433_S434W], the SH2 binding enrichment with Grb2 SH2 was found to be 0.974; with c-Src SH2 it was 1.43; in the data set with SHP2-C SH2 it was 0.803. Moreover, the phosphorylation enrichment came to 3.72 with FGFR3; 5.26 with Fyn; 5.37 with MERTK; 2.4 with Jak2; 2.25 in the data set with AncSZ; 7.63 in the data set with EPHB1. Moreover, the phosphorylation enrichment in the data set on Fer (mouse) came out at 1.51; with Hck, 4.95; in the data set with EPHB2, 9.36; with Fes, 1.53; with c-Abl (mouse) it was 1.68; in the data set with c-Src, 4.87. Moreover, the phosphorylation enrichment in the data set with FGFR1 stood at 3.88.
LSIQTYSALNF [DES_Y423_P419S]: the SH2 binding enrichment in the data set with Grb2 SH2 was 0.824; with c-Src SH2 it was 1.34; with SHP2-C SH2, 1.43. The phosphorylation enrichment in the data set with FGFR3 came to 1.09; with Fyn it was 4.8; with MERTK it was 6.97; with Jak2, 1.76; in the data set with AncSZ, 1.58; with EPHB1, 3.92. Also, the phosphorylation enrichment in the data set with Fer (mouse) came to 2.61; in the data set with Hck, 6.9; in the data set with EPHB2 it was 4.34; with Fes, 2.14; with c-Abl (mouse) it was 1.46; with c-Src, 5.21. Besides, the phosphorylation enrichment with FGFR1 stood at 0.991.
As for LSVMSYDLGMF [GBA3_Y174], the figures for the SH2 binding enrichment with Grb2 SH2, with c-Src SH2 and with SHP2-C SH2 were 0.624, 0.603 and 0.887, respectively. Also, the phosphorylation enrichment with FGFR3 amounted to 1.13; with Fyn it was 0.759; with MERTK, 0.62; with Jak2, 1.44; in the data set with AncSZ it was 1.31; with EPHB1 it was 0.876. Also, the phosphorylation enrichment in the data set on Fer (mouse) is 0.602; with Hck, 0.947; with EPHB2, 0.707; with Fes, 1.59; in the data set on c-Abl (mouse) it was 1.07; in the data set with c-Src, 0.75. The phosphorylation enrichment with FGFR1 worked out at 0.789.
LTDTVYSSSSA [OR4C12_Y71_I67T]: the SH2 binding enrichment with Grb2 SH2 came to 1.07; in the data set with c-Src SH2, 0.349; with SHP2-C SH2, 0.899. The phosphorylation enrichment with FGFR3 is 0.586; in the data set with Fyn, 2.53; in the data set with MERTK it was 0.58; with Jak2, 1.09; in the data set with AncSZ, 1.12; in the data set with EPHB1, 0.323. Also, the phosphorylation enrichment is 1.69 in the data set with Fer (mouse); 1.93 in the data set with Hck; 0.374 with EPHB2; 1.15 with Fes; 0.911 with c-Abl (mouse); 2.33 in the data set on c-Src. Further, in the data set with FGFR1, the phosphorylation enrichment turned out to be 0.694.
LTFPDYLPCSV [SAG_Y129]: the figures for the SH2 binding enrichment with Grb2 SH2, with c-Src SH2 and in the data set with SHP2-C SH2 were 0.748, 0.472 and 0.739, respectively. Besides, the phosphorylation enrichment with FGFR3 was 3.07; with Fyn, 0.427; with MERTK, 0.463; in the data set with Jak2, 2.91; in the data set with AncSZ, 2.34; with EPHB1, 0.879. Also, the phosphorylation enrichment stood at 0.715 in the data set with Fer (mouse); 0.479 with Hck; 0.601 in the data set with EPHB2; 1.44 with Fes; 1.13 in the data set with c-Abl (mouse); 0.535 with c-Src. Besides, the phosphorylation enrichment with FGFR1 is 3.74.
Regarding LTGIAYGLPHW [SLC22A14_Y291_S292G], the SH2 binding enrichment with Grb2 SH2 is 0.89; with c-Src SH2, 0.768; with SHP2-C SH2, 1.23. In addition, the phosphorylation enrichment is 0.618 with FGFR3; 0.578 with Fyn; 0.508 in the data set with MERTK; 0.924 in the data set with Jak2; 1.16 in the data set on AncSZ; 0.56 in the data set with EPHB1. In addition, the phosphorylation enrichment worked out at 0.424 in the data set on Fer (mouse); 0.631 with Hck; 0.558 with EPHB2; 1.25 with Fes; 0.705 with c-Abl (mouse); 0.574 in the data set on c-Src. Also, in the data set with FGFR1, the phosphorylation enrichment turned out to be 0.523.
